Laboratory results as given in the supplement of paper PMC7877785.
± gives the uncertainty stated by the source.

Experiment: self-splicing fitness, log relative to wild type (ln ratio); higher = more splicing; Tetrahymena group I intron in knt gene, E. coli kanamycin selection, DiMSum; sequences stand for … in CUCUCU…GGAGGGAAAAGUUAUCAGGCAUGCACCUGGUAGCUAGUCUUUAAACCAAUAGAUUGCAUCGGUUUAAAAGGCAAGACCGUCAAAUUGCGGGAAAGGGGUCAACAGCCGUUCAGUACCAAGUCUCAGGGGAAACUUUGAGAUGGCCUUGCAAAGGGUAUGGUAAUAAGCUGACGGACAUGGUCCUAACCACGCAGCCAAGUCCUAAGUCAACAGAUCUUCUGUUGAUAUGGAUGCAGUUCACAGACUAAAUGUCGGUCGGGGAAGAUGUAUUCUUCUCAUAAGAUAUAGUCGGACCUCUCCUUAAUGGGAGCUAGCGGAUGAAGUGAUGCAACACUGGAGCCGCUGGGAACUAAUUUGUAUGCGAAAGUAUAUUGAUUAGUUUUGGAGUACUCGUGGUCG
Summary of the method: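 The eight P1ex-region nucleotides of an intron in the knt kanamycin-resistance gene on pET-22b(+) were all randomised and the library put into E. coli BL21(DE3). Six replicate transformations were grown overnight at 37°C or 30°C on LB agar with or without 25 μg/mL kanamycin, together with 100 μg/mL carbenicillin, 50 μM IPTG and 0.2% rhamnose. Colonies were pooled and amplicon-sequenced on an Illumina HiSeq 2500. Fitness from DiMSum is the error-weighted combination of wild-type-normalised replicate fold changes, kanamycin over none.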

Row | Sequence | self-splicing fitness (ln) (30 °C) | self-splicing fitness (ln) (37 °C)
1 | AUAGAGCAAUAUUACGACGU | 0.0144 ± 0.077 | 0.556 ± 0.099
2 | UGAGAGCAAUAUUACGGUUA | -1.14 ± 0.23 | -1.11 ± 0.21
3 | GAAUAGCAAUAUUACGCAAU | -2.31 ± 0.11 | -0.898 ± 0.15
4 | UCUUAGCAAUAUUACGAUAA | -2.73 ± 0.46 | -2.27 ± 0.4
5 | UCUAAGCAAUAUUACGCGUA | -3.11 ± 0.2 | -2.27 ± 0.23
6 | UUGGAGCAAUAUUACGUGUA | -3.69 ± 0.29 | –
7 | ACAAAGCAAUAUUACGUAAU | -2.62 ± 0.061 | -1.14 ± 0.074
8 | CUAUAGCAAUAUUACGUCUG | 0.043 ± 0.088 | -0.099 ± 0.1
9 | UUCCAGCAAUAUUACGCGUC | -1.59 ± 0.16 | -0.827 ± 0.18
10 | AGUAAGCAAUAUUACGAGUU | -2.53 ± 0.097 | -0.877 ± 0.1
11 | AACGAGCAAUAUUACGGUGU | -3.36 ± 0.17 | -1.81 ± 0.18
12 | ACGCAGCAAUAUUACGCUAC | -1.93 ± 0.25 | -2.59 ± 0.45
13 | GGGGAGCAAUAUUACGGACU | 0.0915 ± 0.28 | -0.621 ± 0.22
14 | AAGUAGCAAUAUUACGUUCU | -0.514 ± 0.062 | -0.45 ± 0.09
15 | GAAGAGCAAUAUUACGCACC | -0.341 ± 0.2 | 0.037 ± 0.22
16 | AUGCAGCAAUAUUACGCCAA | -1.09 ± 0.12 | -0.608 ± 0.14
17 | GAGAAGCAAUAUUACGCCAC | – | -0.779 ± 0.37
18 | GACUAGCAAUAUUACGGCGU | -0.502 ± 0.11 | -0.198 ± 0.1
19 | CCAGAGCAAUAUUACGGAAU | -3.42 ± 0.26 | -2.52 ± 0.17
20 | UAGUAGCAAUAUUACGGAUA | -2.7 ± 0.26 | -0.444 ± 0.14
21 | GGGAAGCAAUAUUACGGCCG | -0.164 ± 0.12 | -0.0913 ± 0.15
22 | AGCAAGCAAUAUUACGAGAA | – | -2.27 ± 0.4
23 | AAUGAGCAAUAUUACGCCCU | -1.32 ± 0.12 | -1.16 ± 0.17
24 | GAACAGCAAUAUUACGACCG | -1.25 ± 0.14 | -0.315 ± 0.17
25 | AACCAGCAAUAUUACGCAUC | -1.98 ± 0.079 | -0.531 ± 0.085

Row | Sequence | self-splicing fitness (ln) (30 °C) | self-splicing fitness (ln) (37 °C)
26 | CAGCAGCAAUAUUACGAGAC | -3.94 ± 0.36 | -2.21 ± 0.26
27 | UUCGAGCAAUAUUACGCCGA | -2.65 ± 0.22 | -2.66 ± 0.33
28 | UCACAGCAAUAUUACGUGAA | -2.36 ± 0.1 | -1.4 ± 0.1
29 | AACGAGCAAUAUUACGUCUC | -3.67 ± 0.29 | -3.03 ± 0.27
30 | UCACAGCAAUAUUACGACAG | -2.15 ± 0.082 | -1.47 ± 0.088
31 | CCCGAGCAAUAUUACGAAGA | -2.86 ± 0.31 | –
32 | UCGAAGCAAUAUUACGAACA | -0.799 ± 0.12 | -0.112 ± 0.14
33 | GAAAAGCAAUAUUACGUUGU | -4.51 ± 0.2 | -2.22 ± 0.12
34 | UGGCAGCAAUAUUACGAAGG | -2.93 ± 0.18 | -1.21 ± 0.23
35 | UUGCAGCAAUAUUACGUACU | -1.36 ± 0.12 | -0.848 ± 0.12
36 | AACAAGCAAUAUUACGUAUG | -3.33 ± 0.12 | -1.85 ± 0.1
37 | GGAGAGCAAUAUUACGUCAG | -3.34 ± 0.22 | -1.75 ± 0.21
38 | ACGGAGCAAUAUUACGCUAU | -3.81 ± 0.23 | -2.1 ± 0.19
39 | UGGUAGCAAUAUUACGUUCG | -0.221 ± 0.12 | -0.719 ± 0.14
40 | GUCCAGCAAUAUUACGCGCA | -0.0872 ± 0.1 | 0.23 ± 0.11
41 | GCAAAGCAAUAUUACGACCU | -1.17 ± 0.13 | 0.204 ± 0.16
42 | ACAUAGCAAUAUUACGGAAC | -3.66 ± 0.24 | -2 ± 0.27
43 | CUAAAGCAAUAUUACGUUAA | -3.6 ± 0.11 | -2.53 ± 0.15
44 | ACAUAGCAAUAUUACGGCUC | -0.967 ± 0.092 | -0.28 ± 0.12
45 | AAGGAGCAAUAUUACGGAUC | -2.64 ± 0.36 | –
46 | GCCCAGCAAUAUUACGCACG | -3.39 ± 0.2 | –
47 | GAGGAGCAAUAUUACGCUCG | -1.49 ± 0.14 | -1.26 ± 0.22
48 | CGUAAGCAAUAUUACGUUCC | -2.63 ± 0.3 | –
49 | AUCAAGCAAUAUUACGGGAU | -2.33 ± 0.097 | -2.12 ± 0.13
50 | AAUAAGCAAUAUUACGGGGU | -3.91 ± 0.31 | -3.11 ± 0.23

Row | Sequence | self-splicing fitness (ln) (30 °C) | self-splicing fitness (ln) (37 °C)
51 | GCUAAGCAAUAUUACGAAUG | -0.647 ± 0.082 | -0.433 ± 0.11
52 | CUCUAGCAAUAUUACGGUGA | -3.56 ± 0.21 | -1.8 ± 0.2
53 | CUUUAGCAAUAUUACGGCAU | -3.42 ± 0.39 | -2.9 ± 0.4
54 | CAUAAGCAAUAUUACGAGAU | -3.53 ± 0.15 | -3.51 ± 0.23
55 | CUCCAGCAAUAUUACGACGA | -3.77 ± 0.26 | -2.5 ± 0.18
56 | UCUUAGCAAUAUUACGAGGG | -1.87 ± 0.16 | -2.1 ± 0.25
57 | CUUUAGCAAUAUUACGGCUG | -1.48 ± 0.14 | -0.483 ± 0.14
58 | CUUGAGCAAUAUUACGUCUA | -2.76 ± 0.46 | –
59 | CUUCAGCAAUAUUACGGGCA | -3.21 ± 0.4 | -2.64 ± 0.27
60 | AGUUAGCAAUAUUACGCAUA | -1.15 ± 0.19 | -0.764 ± 0.29
61 | GAUAAGCAAUAUUACGGAAG | -3.56 ± 0.35 | -1.95 ± 0.23
62 | GGCGAGCAAUAUUACGGUCA | 0.0811 ± 0.15 | -0.103 ± 0.13
63 | UCAAAGCAAUAUUACGCCGU | -2.43 ± 0.18 | -0.576 ± 0.12
64 | CCGCAGCAAUAUUACGGACA | -4.06 ± 0.46 | -2.57 ± 0.17
65 | CAGGAGCAAUAUUACGUAGC | – | -2.7 ± 0.36
66 | CUGUAGCAAUAUUACGCAUU | -3.8 ± 0.27 | -3.28 ± 0.47
67 | GACCAGCAAUAUUACGCUCU | -0.6 ± 0.061 | 0.0283 ± 0.089
68 | UUGCAGCAAUAUUACGUCUC | -1.21 ± 0.12 | -0.311 ± 0.16
69 | GACCAGCAAUAUUACGAAAG | -2.49 ± 0.1 | -2.58 ± 0.18
70 | GAUAAGCAAUAUUACGCAUC | -3.06 ± 0.23 | -1.21 ± 0.35
71 | AUUGAGCAAUAUUACGCGAC | -3.45 ± 0.3 | -1.2 ± 0.24
72 | GGGUAGCAAUAUUACGCACU | -3.8 ± 0.47 | -0.577 ± 0.29
73 | AGAUAGCAAUAUUACGAAUC | -1.46 ± 0.18 | -1.06 ± 0.24
74 | UGACAGCAAUAUUACGAUAA | -0.561 ± 0.052 | 0.4 ± 0.072
75 | AUAUAGCAAUAUUACGGACA | -1.48 ± 0.22 | -1.2 ± 0.23

Row | Sequence | self-splicing fitness (ln) (30 °C) | self-splicing fitness (ln) (37 °C)
76 | GCAAAGCAAUAUUACGGCCC | -0.121 ± 0.18 | -0.618 ± 0.27
77 | ACCGAGCAAUAUUACGAAAC | – | -2.95 ± 0.37
78 | AUCCAGCAAUAUUACGAUUU | -0.0954 ± 0.061 | 0.488 ± 0.081
79 | UUAUAGCAAUAUUACGAUUG | -1.01 ± 0.13 | -0.505 ± 0.2
80 | AUAGAGCAAUAUUACGAUCA | -0.545 ± 0.098 | -0.894 ± 0.15
81 | CGCCAGCAAUAUUACGGGCU | -3.79 ± 0.18 | -2.04 ± 0.12
82 | AGUAAGCAAUAUUACGGGCG | -0.68 ± 0.08 | 0.152 ± 0.12
83 | CCCUAGCAAUAUUACGAGUA | -3.32 ± 0.29 | -2.72 ± 0.33
84 | GAGCAGCAAUAUUACGUCAC | -3.67 ± 0.18 | -1.3 ± 0.17
85 | GGCGAGCAAUAUUACGGCAU | -0.523 ± 0.13 | 0.0629 ± 0.15
86 | CUGGAGCAAUAUUACGAUCG | -1.7 ± 0.14 | 0.264 ± 0.21
87 | GUGGAGCAAUAUUACGGAUC | -1.1 ± 0.25 | -0.583 ± 0.21
88 | GACAAGCAAUAUUACGAUAA | -1.68 ± 0.11 | -0.345 ± 0.1
89 | GGUUAGCAAUAUUACGGUCU | -0.263 ± 0.12 | 0.162 ± 0.15
90 | AUUCAGCAAUAUUACGGUGA | -0.556 ± 0.097 | -0.526 ± 0.086
91 | ACAAAGCAAUAUUACGCAAC | -2.37 ± 0.17 | -0.412 ± 0.17
92 | UUACAGCAAUAUUACGGUAA | -2.33 ± 0.2 | -1.68 ± 0.17
93 | CGAAAGCAAUAUUACGGAAU | -3.69 ± 0.29 | -2.15 ± 0.49
94 | UUAGAGCAAUAUUACGACGA | 0.428 ± 0.12 | 0.651 ± 0.15
95 | GAAUAGCAAUAUUACGCUAG | -2.22 ± 0.16 | -0.535 ± 0.14
96 | UUGCAGCAAUAUUACGAGCU | -2.6 ± 0.1 | -1.37 ± 0.11
97 | GAAGAGCAAUAUUACGGCUU | -0.88 ± 0.14 | 0.407 ± 0.13
98 | GAGUAGCAAUAUUACGGGUA | -2.78 ± 0.35 | -2.54 ± 0.26
